# Experimental data published in patent publication US20200397827A1, “CHONDROCYTE PROLIFERATION PROMOTER, CHONDROCYTE PROLIFERATION PROMOTION METHOD, SCREENING METHOD FOR CHONDROCYTE PROLIFERATION PROMOTERS” (Tokyo University of Science Foundation, priority 2018, published 2020).
# B1: recombinant human CTRP3: recombinant human CTRP3 (Aviscera Bioscience), C1q/TNF-related protein family; amino acid sequence SEQ ID NO: 2 (protein, listed as Homo sapiens)
# chain: MLWRQLIYWQLLALFFLPFCLCQDEYMESPQTGGLPPDCSKCCHGDYSFRGYQGPPGPPGPPGIPGNHGNNGNNGATGHEGAKGEKGDKGDLGPRGERGQHGPKGEKGYPGIPPELQIAFMASLATHFSNQNSGIIFSSVETNIGNFFDVMTGRFGAPVSGVYFFTFSMMKHEDVEEVYVYLMHNGNTVFSMYSYEMKGKSDTSSNHAVLKLAKGDEVWLRMGNGALHGDHQRFSTFAGFLLFETK
# B2: recombinant human CTRP6: recombinant human CTRP6 (Aviscera Bioscience), C1q/TNF-related protein family; amino acid sequence SEQ ID NO: 3 (protein, listed as Homo sapiens)
# chain: MQWLRVRESPGEATGHRVTMGTAALGPVWAALLLFLLMCEIPMVELTFDRAVASGCQRCCDSEDPLDPAHVSSASSSGRPHALPEIRPYINITILKGDKGDPGPMGLPGYMGREGPQGEPGPQGSKGDKGEMGSPGAPCQKRFFAFSVGRKTALHSGEDFQTLLFERVFVNLDGCFDMATGQFAAPLRGIYFFSLNVHSWNYKETYVHIMHNQKEAVILYAQPSERSIMQSQSVMLDLAYGDRVWVRLFKRQRENAIYSNDFDTYITFSGHLIKAEDD
# B3: adiponectin: adiponectin (BioVendor), protein of the CTRP family; human amino acid sequence SEQ ID NO: 1 (protein, listed as Homo sapiens)
# chain: MLLLGAVLLLLALPGHDQETTTQGPGVLLPLPKGACTGWMAGIPGHPGHNGAPGRDGRDGTPGEKGEKGDPGLIGPKGDIGETGVPGAEGPRGFPGIQGRKGEPGEGAYVYRSAFSVGLETYVTIPNMPIRFTKIFYNQQNHYDGSTGKFHCNIPGLYYFAYHITVYMKDVKVSLFKKDKAMLFTYDQYQENNVDQASGSVLLHLEVGDQVWLQVYGEGERNGLYADNDNDSTFTGFLLYHDTN
# Key:
# Type in all cases: cell-based, mouse
# [1] = test system: ATDC5 cells; test: Cell proliferation of ATDC5 cells in the presence or absence of AdipoR1 blocker
# Experimental: ATDC5 cells were seeded into a 12-well plate at a cell density of 1×10^4/well and cultured in the presence or absence of 10 μg/ml AdipoR1 blocker (GeneTex) and in the presence or absence of 100 ng/ml recombinant human CTRP6 (Aviscera Bioscience) for 2 days (all n=4). As a medium, a HAM's F-12 medium containing 5% FBS and 1% penicillin/streptomycin was used.
# Furthermore, 100 ng/ml adiponectin (BioVendor), 100 ng/ml AdipoRon (AdipoGen), or 50 ng/ml recombinant human CTRP3 (Aviscera Bioscience) was used instead of 100 ng/ml recombinant human CTRP6 to culture in the same manner as described above (all n=4). Meanwhile, when the AdipoRon was used, a culture period was 1 day.
# After culturing, the number of cells was counted with a hemocytometer.
# [2] = test system: ATDC5 cells; test: Effect of MAPK inhibitor on cell proliferation of chondrocyte; conditions: FIG. 3C
# Experimental: ATDC5 cells were seeded into a 48-well plate at a cell density of 2×10^4/well and cultured in the presence or absence of 50 ng/ml recombinant human CTRP6 (Aviscera Bioscience) for 2 days. A HAM's F-12 medium containing 5% FBS and 1% penicillin/streptomycin was used as a medium, and a carrier (DMSO), 1 μM ERK1/2 inhibitor (U0126, Sigma), 1 μM JNK inhibitor (SP600125, Sigma), or 1 μM p38 inhibitor (SB239063, Sigma) was further added thereto (all n=4).
# After 2 day-culture, the number of cells was counted with a hemocytometer.
# [3] = test system: ATDC5 cells; test: Cell proliferation of ATDC5 cells with adiponectin receptor siRNA introduced, recombinant human CTRP3; conditions: 50 ng/ml, 2 days, FIG. 6A
# Experimental: AdipoR1 siRNA, AdipoR2 siRNA, control siRNA-1, AdipoR3 siRNA, AdipoR4 siRNA, or control siRNA-2 was introduced (transfected) into ATDC5 cells in the same manner as in Test Example 4 (1).
# (§1) Forty-eight hours after the introduction of the siRNAs, the ATDC5 cells were seeded into a 48-well plate at a cell density of 2×10^4/well and cultured in the presence or absence of 50 ng/ml recombinant human CTRP3 (Aviscera Bioscience) for 2 days (all n=4). After that, the number of cells was counted with a hemocytometer.
# [4] = test system: ERK1/2; test: Phosphorylation of MAPK, western blotting; conditions: ATDC5; 10 ng/ml; 1, 5, 15 or 30 min; FIG. 3B
# Experimental: ATDC5 cells were seeded into a 60 mm Petri dish at a cell density of 1×10^6/well and cultured in a serum-free HAM's F-12 medium for 4 hours. Then, the resultant was washed with PBS and then cultured in a serum-free HAM's F-12 medium containing 10 ng/ml recombinant human CTRP6 (Aviscera Bioscience) for 1 min, 5 min, 15 min, or 30 min. Then, the cells were washed with a phosphatase-inhibiting buffer supplemented with PhosSTOP (Sigma) and then lysed with a lysis buffer (0.1% TritonX-100, 100 mM NaCl, 50 mM Tris-HCl (pH 7.5)).
# Then, the resultant cell lysate was subjected to electrophoresis on a 12.5% SDS-PAGE gel and proteins were transferred onto a PVDF membrane. The membrane onto which the proteins had been transferred was blocked by shaking in 5% BSA/TBS at room temperature for 1 hour. After blocking, the membrane was shaken in the presence of a primary antibody (rabbit monoclonal antibody) at room temperature for 1 hour to thereby undergo a primary antibody reaction. […] Intensity of each band was quantified with ImageJ software (NIH).
# [5] = test system: ATDC5 cells; test: Cell proliferation of chondrocyte line, cell count with hemocytometer; conditions: 0, 100, 500 ng/ml, 4 and 7 day-culture, FIG. 3A
# Experimental: In Test Example 3, a function of CTRP6 was analyzed using a mouse chondrocyte line ATDC5.
# ATDC5 cells were seeded into a 12-well plate at a cell density of 5×10^4/well and cultured in the presence of various concentrations (0, 100, 500 ng/ml; all n=3) of recombinant human CTRP6 (Aviscera Bioscience). As a medium, a HAM's F-12 medium containing 5% FBS and 1% penicillin/streptomycin was used.
# After 4 and 7 day-culture, the number of cells was counted with a hemocytometer.
# [6] = test system: ERK1/2; test: ERK phosphorylation in ATDC5 cells with adiponectin receptor siRNA introduced, western blotting; conditions: 10 ng/ml, 15 min
# Experimental: ATDC5 cells into which the siRNA had been introduced were seeded into a 60 mm Petri dish at a cell density of 1×10^6/well and cultured in a serum-free HAM's F-12 medium for 4 hours. Then, the cells were washed with PBS and then cultured in a serum-free HAM's F-12 medium containing 10 ng/ml recombinant human CTRP6 (Aviscera Bioscience) for 15 min. Then, the cells were washed with a phosphatase-inhibiting buffer supplemented with PhosSTOP (Sigma) and then lysed with a lysis buffer (0.1% TritonX-100, 100 mM NaCl, 50 mM Tris-HCl (pH 7.5)). Western blotting analysis was performed in the same manner as in Test Example 3 (2).
# [7] = test system: ATDC5 cells; test: Cell proliferation of ATDC5 cells with adiponectin receptor siRNA introduced, recombinant human CTRP6; conditions: 100 ng/ml, 1 day
# Experimental: ATDC5 cells were seeded into a 24-well plate at a cell density of […] and cultured in a HAM's F-12 medium containing 2.5% FBS for 24 hours. After culturing, 30 pmol of AdipoR1 siRNA, 30 pmol of AdipoR2 siRNA, 30 pmol of control siRNA-1, 6 pmol of AdipoR3 siRNA, 6 pmol of AdipoR4 siRNA, or 6 pmol of control siRNA-2 was introduced (transfected) thereinto and culturing was continued for 48 hours. Lipofectamine RNAiMAX (Invitrogen) was used to introduce the siRNAs.
# Meanwhile, the AdipoR3 siRNA, the AdipoR4 siRNA, and the control siRNA-2 were purchased from IDT Teck (TriTECTa RNAi Kit). Base sequences of the AdipoR1 siRNA, the AdipoR2 siRNA, and the control siRNA-1 were as follows:
# as §1, with “100” for “50”, “CTRP6” for “CTRP3”, “1 day” for “2 days”
# [8] = test system: primary chondrocytes of Clqtnf6−/− mice; test: Chondrogenesis of primary chondrocytes (Alcian blue staining); conditions: 0, 2.5, 5, 10 μg/ml, 7 days, FIG. 2B
# Experimental: Costal cartilage tissues from neonates (5 to 6 day-old) of the Clqtnf6^−/− mice and the wild-type mice were enzymatically digested with DMEM containing 0.5 mg/ml collagenase D to thereby obtain primary chondrocytes. Then, 2×10^5 cells were suspended into 10 μL of DMEM containing 10% FCS, seeded into a 24-well plate, and cultured at 37° C. for 2 hours (both n=3). Then, DMEM containing 10% FCS was added thereto at a volume of 500 μL per well and culturing was continued for 7 days. Then, the cells were fixed with 10% neutral buffered formalin, washed with 0.1 N HCl, and then stained with a 1% Alcian blue 8GX solution (Sigma-Aldrich) in order to confirm chondrogenesis.
# In the same manner as described above, primary chondrocytes were obtained from the Clqtnf6^−/− mice, and then 2×10^5 cells were suspended into 10 μL of DMEM containing 10% FCS, seeded into a 24-well plate, and cultured at 37° C. for 2 hours. Then, DMEMs containing 10% FCS and various concentrations (0, 2.5, 5, 10 μg/ml; all n=3) of recombinant human CTRP6 (Aviscera Bioscience) were added thereto at a volume of 500 μL per well and culturing was continued for 7 days. Then, the cells were fixed with 10% neutral buffered formalin, washed with 0.1 N HCl, and then stained with a 1% Alcian blue 8GX solution (Sigma-Aldrich) in order to confirm chondrogenesis.
# [9] = 100 ng/ml, 2 days, FIGS. 5A, 5B
molecule,measurement,setting,value
"O=C(COc1ccc(C(=O)c2ccccc2)cc1)NC1CCN(Cc2ccccc2)CC1 [AdipoRon, reference compound]",number of cells (cell proliferation),"[1]; 100 ng/ml, culture period 1 day, FIG. 5C",facilitated cell proliferation
"N#CC(=C(/N)Sc1ccccc1N)/C(C#N)=C(/N)Sc1ccccc1N [ERK1/2 inhibitor, U0126, reference compound]",number of cells (cell proliferation) with MAPK inhibitor added,"[2]; 1 μM inhibitor, presence or absence of 50 ng/ml recombinant human CTRP6, 2 days",inhibited cell proliferation
B1,"number of cells (cell proliferation), AdipoR2 siRNA introduced",[3],facilitation of cell proliferation was not confirmed
B2,number of cells (cell proliferation),[1]; [9],facilitated cell proliferation
same,number of cells (cell proliferation),"[1]; 2 days, second statement of b158 (FIG. 5D, 50 ng/ml recombinant human CTRP3)",also facilitated
same,phosphorylation of MAPKs (ERK1/2),[4],facilitated phosphorylation of ERK1/2
same,number of cells (cell proliferation),[5],facilitated cell proliferation
same,number of cells (cell proliferation),"[2]; 50 ng/ml, 2 days",facilitated cell proliferation
same,"phosphorylation of ERK1/2, AdipoR1 siRNA introduced","[6]; ATDC5 with AdipoR1 siRNA, FIG. 4C",phosphorylation of ERK1/2 was not facilitated
same,"phosphorylation of ERK1/2, AdipoR4 siRNA introduced","[6]; ATDC5 with AdipoR4 siRNA, FIG. 4D",phosphorylation of ERK1/2 was not facilitated
same,"number of cells (cell proliferation), AdipoR1 siRNA introduced","[7]; ATDC5 with AdipoR1 siRNA, FIG. 4A",facilitation of cell proliferation was not confirmed
same,"number of cells (cell proliferation), AdipoR4 siRNA introduced","[7]; ATDC5 with AdipoR4 siRNA, FIG. 4B",facilitation of cell proliferation was not confirmed
same,chondrogenesis (intensity of Alcian blue stained cells),[8],chondrogenesis was promoted in a recombinant human CTRP6 concentration-dependent manner
B3,number of cells (cell proliferation),[1]; [9],facilitated cell proliferation
